This note sets out measurements from article PMC8624154.

For this test, the target named is recombinant extracellular domain of rabies virus glycoprotein (RABVG, CVS strain) with T4 fibritin t (rabies virus (CVS strain)). Briefly: SEC; rRABVG on Superdex 200 10/300 GL after HisTrap; single peak.

Take “recombinant extracellular domain of rabies virus glycoprotein (RABVG, CVS strain) with T4 fibritin t (domain or fragment)”: the stoichiometry N was determined as 3.
